Reference: paper PMC5234850 (Cell reports, 2017)

T1: human Mre11 core (2-411aa), N-terminal his-tagged (human, UniProt P49959 2-411)
T1 sequence (looked up): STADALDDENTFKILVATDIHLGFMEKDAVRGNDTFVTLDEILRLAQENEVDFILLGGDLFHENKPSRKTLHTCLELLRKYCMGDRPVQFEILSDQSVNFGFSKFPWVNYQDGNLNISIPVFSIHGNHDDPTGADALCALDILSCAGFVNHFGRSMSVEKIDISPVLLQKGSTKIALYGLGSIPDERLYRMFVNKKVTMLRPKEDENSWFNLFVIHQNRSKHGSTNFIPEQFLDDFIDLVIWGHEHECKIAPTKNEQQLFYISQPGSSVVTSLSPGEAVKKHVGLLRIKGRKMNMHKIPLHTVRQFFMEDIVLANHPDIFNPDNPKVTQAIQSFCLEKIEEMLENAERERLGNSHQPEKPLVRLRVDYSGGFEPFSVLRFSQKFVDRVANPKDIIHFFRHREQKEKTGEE


Tests used:
[1] = target: human Mre11 core (2-411aa), N-terminal his-tagged (human) (UniProt P49959); assay: SEC
[2] = target: T1, human Mre11 core (2-411aa), N-terminal …; assay: SEC

Molecule | stoichiometry N [1] | binding result [2]
human Mre11 core (2-411aa), N-terminal his-tagged (from UniProt P49959 2-411) (domain or fragment) | 2 | –
human Nbs1 F4 (622-729aa) fused to maltose binding protein (domain or fragment, UniProt O60934 622-729, looked up) KKRELKEDSLWSAKEISNNDKLQDDSEMLPKKLLLTEFRSLVIKNSTSRNPSGINDDYGQLKNFKKFKKVTYPGAGKLPHIIGGSDLIAHHARKNTELEEWLRQEMEV | – | binds
